Experimental data from patent publication US20060216339.

Assays:
[1] = biological target: purified recombinant VASP-GST (vasodilator-stimulated phosphoprotein with C-terminal GST epitope tag), P70460
[2] = biological target: recombinant mammalian ERK2 (MAPK p42 protein, bacterial recombinant, already containing phospho-tyrosine-185)
[3] = biological target: T1, peptide A, RKISASGP (type-I PKG peptide substrate)
T1 chain: RKISASGP

[4] = biological target: T2, BPDEtide, RKISASEFDRPLR (peptide B, type-I PKG peptide substrate)
T2 chain: RKISASEFDRPLR

[5] = biological target: T3, peptide C, QKRPRRKDTP (type-II PKG substrate)
T3 chain: QKRPRRKDTP

[6] = biological target: T4, peptide D, RKRSRAE (H2Btide, type-I PKG peptide substrate)
T4 chain: RKRSRAE

Chain of recombinant mammalian ERK2 (MAPK p42 protein, bacterial recombinant, already containing phospho-tyrosine-185) (P28482 2-360): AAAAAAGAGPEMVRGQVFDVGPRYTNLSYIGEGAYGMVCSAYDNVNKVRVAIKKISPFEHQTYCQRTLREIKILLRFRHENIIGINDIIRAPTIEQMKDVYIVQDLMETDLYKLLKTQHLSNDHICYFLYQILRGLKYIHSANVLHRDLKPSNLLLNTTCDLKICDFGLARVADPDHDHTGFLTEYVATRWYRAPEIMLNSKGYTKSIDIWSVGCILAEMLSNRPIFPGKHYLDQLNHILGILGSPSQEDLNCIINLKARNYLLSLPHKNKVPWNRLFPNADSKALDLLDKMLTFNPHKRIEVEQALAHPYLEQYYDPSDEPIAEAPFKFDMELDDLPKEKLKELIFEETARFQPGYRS
Chain of purified recombinant VASP-GST (vasodilator-stimulated phosphoprotein with C-terminal GST epitope tag), P70460 (P70460 whole entry): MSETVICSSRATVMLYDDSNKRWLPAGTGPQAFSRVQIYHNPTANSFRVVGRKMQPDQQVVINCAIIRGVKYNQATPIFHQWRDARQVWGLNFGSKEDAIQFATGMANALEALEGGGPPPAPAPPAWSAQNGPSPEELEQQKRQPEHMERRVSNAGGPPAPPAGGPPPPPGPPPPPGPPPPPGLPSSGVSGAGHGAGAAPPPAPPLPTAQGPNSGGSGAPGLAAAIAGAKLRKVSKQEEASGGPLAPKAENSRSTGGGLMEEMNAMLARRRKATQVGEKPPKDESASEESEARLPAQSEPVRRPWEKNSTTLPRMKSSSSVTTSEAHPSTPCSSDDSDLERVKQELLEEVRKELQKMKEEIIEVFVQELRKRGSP

B1: recombinant His-apPKG (Aplysia protein kinase G with N-terminal His tag, expressed in baculovirus/Sf9 cells) (protein)
chain: MGNGASSNTHFTIDGESMDVHKVKALVPELRHELRRRDKIIEQYDSQVRQKDELLKEKEAEIARLKEEVHKLKSVLQLKVDTLKAQESKPDLLSTIDENQAEPTAPRGPAKKQGVSGESPSSKTLGYVDLTHHEKDFKSKQLIKDAILSNEFIKVLAATQLREIIDCMYEKRVPKACYIIKGGERGEHLYVCADGLLEVHKEDKRLGEIKSGGLFGELAILYNCKRTASVKAVTHTTLWVLDRRVFQAIMMKTGLQRREENMAFLKSVPLLKNLPSDKLAKMSDVLEYDFFHENEYIIREGAAGDTFFILNKGEVKVTQKIAGHAEPKEVRRLKRGDYFGEKALLSEDRRTANVIALPPGVECLTVDRESFTQFVGDLNELRNKDYGDEARGAERRSGSDSTVSPVSERPVAKEFENCSLDDLQLVTTLGMGGFGRVELVQLSKEKGKTFALKCLKKKHIVETRQQEHIYSEKKIMMEADSPFITKLHKTFRDRKYVYMLMEVCLGGELWTILRDRGNFDDLTARFCVACVLEAFSYLHAKGIIYRDLKPENLLLDARGYVKLVDFGFAKKIGVGKKTWTFCGTPEYVAPEIILNKGHDHSADYWSLGILMYELLNGTPPFSGSDPMRTYNIILKGIDHIEFPKKISRSAHVLIKKLCRDNPMERLGYGKNGISDIRKNKWFQGFDWDGLMDLTLTPPIVPKVKNPTDTSNFDSYPRDMDIAADELSGWDIDF
phosphorylation of VASP at serine 239 (Western blot with anti-phospho-VASP (Ser 239)) [1]: both the bovine and Aplysia kinases phosphorylated this site
ERK2 activity (production of phospho-Elk1) compared with activation by MEK1 [2]: apPKG produced an ERK2 with similar activity as that produced by MEK1
activation of ERK2 (phosphorylation of Elk1 by ERK2 after incubation with apPKG) [2]: apPKG activated ERK2 to phosphorylate Elk1
phosphorylation of ERK2 at T183 (Western blot with antibody to ERKpT183) [2]: there was an increase in the phosphorylation of the -T- in the presence of apPKG
phosphorylation of ERK2 at Y185 (Western blot with antibody to ERKpY185) [2]: There was no increase in phosphorylation of the -Y- when ERK2 was incubated with apPKG
kinase activity on peptide substrates [3]: both kinases readily phosphorylated several PKG peptide substrates
dual phosphorylation of ERK2 by apPKG in the presence of 1 µg of BPDEtide (Western blot with Ab^pTpYmapk) [4]: The activation was specific, because it was reduced in the presence of BPDEtide
kinase activity (transfer of ^32P from [^32P]ATP to BPDEtide) [4]: Inactive apPKG was activated by 100 nM 8-Br-cGMP and readily phosphorylated BPDEtide
kinase activity on peptide substrates [4]: both kinases readily phosphorylated several PKG peptide substrates
kinase activity on peptide substrates [5]: neither kinase phosphorylated peptide C
kinase activity on peptide substrates [6]: both kinases readily phosphorylated several PKG peptide substrates

B2: recombinant bovine PKG type-Iα (protein)
chain: MSELEEDFAKILMLKEERIKELEKRLSEKEEEIQELKRKLHKCQSVLPVPSTHIGPRTTRAQGISAEPQTYRSFHDLRQAFRKFTKSERSKDLIKEAILDNDFMKNLELSQIQEIVDCMYPVEYGKDSCIIKEGDVGSLVYVMEDGKVEVTKEGVKLCTMGPGKVFGELAILYNCTRTATVKTLVNVKLWAIDRQCFQTIMMRTGLIKHTEYMEFLKSVPTFQSLPEEILSKLADVLEETHYENGEYIIRQGARGDTFFIISKGKVNVTREDSPNEDPVFLRTLGKGDWFGEKALQGEDVRTANVIAAEAVTCLVIDRDSFKHLIGGLDDVSNKAYEDAEAKAKYEAEAAFFANLKLSDFNIIDTLGVGGFGRVELVQLKSEESKTFAMKILKKRHIVDTRQQEHIRSEKQIMQGAHSDFIVRLYRTFKDSKYLYMLMEACLGGELWTILRDRGSFEDSTTRFYTACVVEAFAYLHSKGIIYRDLKPENLILDHRGYAKLVDFGFAKKIGFGKKTWTFCGTPEYVAPEIILNKGHDISADYWSLGILMYELLTGSPPFSGPDPMKTYNIILRGIDMIEFPKKIAKNAANLIKKLCRDNPSERLGNLKNGVKDIQKHKWFEGFNWEGLRKGTLTPPIIPSVASPTDTSNFDSFPEDNDEPPPDDNSGWDIDF
phosphorylation of VASP at serine 239 (Western blot with anti-phospho-VASP (Ser 239)) [1]: both the bovine and Aplysia kinases phosphorylated this site
kinase activity on peptide substrates [3]: both kinases readily phosphorylated several PKG peptide substrates
kinase activity on peptide substrates [4]: both kinases readily phosphorylated several PKG peptide substrates
kinase activity on peptide substrates [5]: neither kinase phosphorylated peptide C
kinase activity on peptide substrates [6]: both kinases readily phosphorylated several PKG peptide substrates
